Series [1] concerns the molecule itself. Kind of series: single-molecule pulldown (SiMPull) with photobleaching step counting; SEC-purified mVenus-tagged TMC-1 complex (Flag peptide elution) diluted 1:200, captured on biotinylated anti-GFP nanobody on streptavidin/PEG slides, TIRF; 20 mM Tris pH 8.0, 150 mM NaCl, 0.02% GDN, 3 mM CaCl2; 600 molecules from 3 movies.
Series [2] concerns the molecule itself. The experiment in a line: cryo-EM structure; native TMC-1 complex in GDN, 20 mM Tris-Cl pH 8.5, 150 mM NaCl, 3 mM CaCl2, on 2 nm carbon-coated grids; one dataset, three classes: expanded, contracted, with ARRD-6.

B1: transmembrane channel-like protein 1 (TMC-1) with C-terminal mVenus and 3×Flag tag, from tmc-1::mVenus knock-in worms (natural protein, C. elegans, UniProt D3KZG3 1-1285, looked up)
chain: MQEAARRASLRKEHTPTNEKFGDLSKQDSLGERASSKLTLDDELYDILYAFGETDAFINKGDKQRETDEDGNPLTRQALLERIRQKKEVIGKLRCQAWSMTRKRRTLKLAQKYLEQHESKVSRSHLYMEEMRKRARLMKRSFSNFKTYLIPWESKIKRIESHFGSVVSSYFTFLRWIVFVNIMITLIALVFVVLPETLADSVANEGRFNRTKTRKQIPANERVHADELAVVWHYDGYLRYSPLFYGYYSDDPFLGNKIKYALPLAYFMVTLTIFAYSFFAILRKMAANARMSKLSGSKAEQYIFNWKLFTGWDYTIGNSETASNTVMAVVIKLRESIADIKKDAHGKFRLLQFSLRVFANIIICAMLGFSIYCIIFAVQKSQVQDDGNLFTKNQVPSVVSTITHVFPMIFDLIGKMENYHPRTALRAHLGRVLILYTVNYITLIFALFEKMTALRDRVNSTSTSSSHRTKRQQGGWNPNMQRPPPYASRAEVRQMSDFLAANTRRFQTVSQRTTRSVTTPFTVAPQFGPFNVNNPNAVFHNGTHSTSFESQILGPKALPIFTPPPRKYPGFTPGNVGQQFGGPDFPRNQVYTKSTPLPRVRTKPPWVYTTTHPPLVQNRAMTTTMSKSAKKGNSKNLDDDILLSNETIQMSEAALRRNHDGHNNDICWETIIGQEIVKLVTMDLIFTILSILVIDLFRGLWIKYCSSWWCWDIETTFPEYGEFKVAENVLHIINNQGMIWLGLFFAPLLPAINNIKLIILMYIRGWAVMTCNVPAREIFRASRSSNFYLGILLIWLLLCTLPVGFVIASMSPSRSCGPFARYQHFYTVVTREIEKRVDQTVLSYIRHIASPGVVIPIILFLILIIYFLFSLVRGLREANTDLQAQLVHERTEEKKKIFELAGGKKNKFEKDRDKKRSNDYIPLIEQRRREPWRQYHEMEADHALASDSSEESDINEDEDDERQPLTAYPLRAIETPPETLQVTAFHPSLGSLIENREMEDEESASGDQLPMIHKSVSFQGPSHMQMRQSISTESCSQISRSAIQVATPEEIRALLRPYLEAKYGIPYQHGIKSFPIDVHTPPNNTPSRRSSKYNSFVSLYEHTRDDHKNFVASTIKETDEDPGKSDKKQTSSKDVAPDFMPWPSADEARALREKMKSKTPLMLTKTTVEEKPKGGKSSESEFRPPVPIHRKYNIQTTEEENEEEETDSAPESSKKRFRISVSPTKTIAPASASRAQHKIVSQASSSSSIPHGRQPDPNKKASLVLPPLRAPRVQFDEDDSPRQID
notes: TMC-1, C. elegans, endogenous gene (Wormbase T13G4.3.1); mVenus-3×Flag inserted immediately before the stop codon, PreScission (3C) site between the C terminus of TMC-1 and mVenus; residues M1 to D1285; that sample was afterwards eluted by 3C cleavage and run on SEC) and as imaged in SiMPull (Flag peptide elution, mVenus kept); also called TMC-1-mVenus-3×Flag; mVenus-tagged TMC-1; source: …
Regarding B1, in series [1], the “stoichiometry N” value is 2.

B2: transmembrane channel-like protein 1 (TMC-1), native, after 3C protease elution (natural protein, C. elegans, UniProt D3KZG3 1-1285, looked up)
chain: MQEAARRASLRKEHTPTNEKFGDLSKQDSLGERASSKLTLDDELYDILYAFGETDAFINKGDKQRETDEDGNPLTRQALLERIRQKKEVIGKLRCQAWSMTRKRRTLKLAQKYLEQHESKVSRSHLYMEEMRKRARLMKRSFSNFKTYLIPWESKIKRIESHFGSVVSSYFTFLRWIVFVNIMITLIALVFVVLPETLADSVANEGRFNRTKTRKQIPANERVHADELAVVWHYDGYLRYSPLFYGYYSDDPFLGNKIKYALPLAYFMVTLTIFAYSFFAILRKMAANARMSKLSGSKAEQYIFNWKLFTGWDYTIGNSETASNTVMAVVIKLRESIADIKKDAHGKFRLLQFSLRVFANIIICAMLGFSIYCIIFAVQKSQVQDDGNLFTKNQVPSVVSTITHVFPMIFDLIGKMENYHPRTALRAHLGRVLILYTVNYITLIFALFEKMTALRDRVNSTSTSSSHRTKRQQGGWNPNMQRPPPYASRAEVRQMSDFLAANTRRFQTVSQRTTRSVTTPFTVAPQFGPFNVNNPNAVFHNGTHSTSFESQILGPKALPIFTPPPRKYPGFTPGNVGQQFGGPDFPRNQVYTKSTPLPRVRTKPPWVYTTTHPPLVQNRAMTTTMSKSAKKGNSKNLDDDILLSNETIQMSEAALRRNHDGHNNDICWETIIGQEIVKLVTMDLIFTILSILVIDLFRGLWIKYCSSWWCWDIETTFPEYGEFKVAENVLHIINNQGMIWLGLFFAPLLPAINNIKLIILMYIRGWAVMTCNVPAREIFRASRSSNFYLGILLIWLLLCTLPVGFVIASMSPSRSCGPFARYQHFYTVVTREIEKRVDQTVLSYIRHIASPGVVIPIILFLILIIYFLFSLVRGLREANTDLQAQLVHERTEEKKKIFELAGGKKNKFEKDRDKKRSNDYIPLIEQRRREPWRQYHEMEADHALASDSSEESDINEDEDDERQPLTAYPLRAIETPPETLQVTAFHPSLGSLIENREMEDEESASGDQLPMIHKSVSFQGPSHMQMRQSISTESCSQISRSAIQVATPEEIRALLRPYLEAKYGIPYQHGIKSFPIDVHTPPNNTPSRRSSKYNSFVSLYEHTRDDHKNFVASTIKETDEDPGKSDKKQTSSKDVAPDFMPWPSADEARALREKMKSKTPLMLTKTTVEEKPKGGKSSESEFRPPVPIHRKYNIQTTEEENEEEETDSAPESSKKRFRISVSPTKTIAPASASRAQHKIVSQASSSSSIPHGRQPDPNKKASLVLPPLRAPRVQFDEDDSPRQID
modifications: N-glycan at N209
notes: TMC-1, C. elegans, endogenous gene (Wormbase T13G4.3.1); residues M1 to D1285; not modelled: M1-P73, S460-N663, L886-D1285; Residues of the 3C site may remain at the C terminus after cleavage; Two copies stand in the complex (two-fold symmetric dimer); also called TMC-1 subunit; TMC-1 protomer; source: endogenous tmc-1 locus, tmc-1::mVenus knock-in worms; purified (anti-Flag M2 resin, 3C protease …)
As for B2, in series [2], the “stoichiometry N” value came to 2.

(Values after publication PMC9605866, “Structures of the TMC-1 complex illuminate mechanosensory transduction” (Nature, 2022).)
